Laboratory results as given in US20090324614A1.

Experiments:
[1] = target: rat FcRn/rat β2M expressed on cells (rat) (UniProt P13599); test: FACS blocking of IgG-Fc, IgG, pH 6
[2] = target: soluble human FcRn (shFcRn) (human) (UniProt P55899); test: Biacore, IgG immobilized, hFcRn flowed, pH 7.4

Chain of rat FcRn/rat β2M expressed on cells (rat) (P13599 23-366 limits assumed, chain 1 of 2): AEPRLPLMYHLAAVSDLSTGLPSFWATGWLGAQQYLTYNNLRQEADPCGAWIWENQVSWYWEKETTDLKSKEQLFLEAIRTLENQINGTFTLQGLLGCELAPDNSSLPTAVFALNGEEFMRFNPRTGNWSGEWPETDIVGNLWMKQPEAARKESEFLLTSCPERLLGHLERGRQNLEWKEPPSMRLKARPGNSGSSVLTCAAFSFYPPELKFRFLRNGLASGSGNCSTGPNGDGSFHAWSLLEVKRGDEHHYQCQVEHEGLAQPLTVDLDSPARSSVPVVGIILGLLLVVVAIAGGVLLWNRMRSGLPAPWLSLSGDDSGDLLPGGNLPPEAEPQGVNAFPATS
Chain of rat FcRn/rat β2M expressed on cells (rat) (b2m, as listed by the source limits assumed, chain 2 of 2): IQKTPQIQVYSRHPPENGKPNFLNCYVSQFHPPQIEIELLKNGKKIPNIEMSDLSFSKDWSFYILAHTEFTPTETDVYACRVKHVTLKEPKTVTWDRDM

Row | IC50 [1] | Kd [2] | Substance
1 | 1.5 nM | – | 1G3 mouse anti-rat FcRn IgG (antibody)
2 | – | 7.06 nM | M161-B04 IgG (DX-2504) (antibody)
